From PMC3771946

Legend:
Experiment in all cases: co-IP
[1] = biological target: Cx43-ΔY265AY+ΔP283PGYKLV-GFP (S2+3) (rat) (UniProt P08050)
[2] = biological target: Cx43-Y230H+F268A+Y286H-GFP (S1+2+3) (rat) (UniProt P08050)
[3] = biological target: untagged Cx43-ΔY265AY+ΔP283PGYKLV (S2+3) (rat) (UniProt P08050)
[4] = biological target: Cx43-F268A+Y286H-GFP (S2+3) (rat) (UniProt P08050)
[5] = biological target: Cx43-Y230H+ΔY265AY+ΔP283PGYKLV-GFP (S1+2+3) (rat) (UniProt P08050)
[6] = biological target: untagged Cx43-Y230H+ΔY265AY+ΔP283PGYKLV (S1+2+3) (rat) (UniProt P08050)
[7] = biological target: untagged Cx43-F268A+Y286H (S2+3) (rat) (UniProt P08050)
[8] = biological target: untagged Cx43-Y230H+F268A+Y286H (S1+2+3) (rat) (UniProt P08050)

Measured: amount coprecipitated, % of wild type, with m16 (% of wild type)

clathrin (from UniProt Q00610 1-1675) (complex)
< 10: all assays above
